Holding throughout (assay): SPR, antibody captured, C2 as analyte;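 further: biacore SPR at 37 °C, anti-C2 mAbs captured via goat anti-human IgG on CM5 chips, double-referenced sensorgrams fit to a 1:1 kinetic or steady-state model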
Background: Surface plasmon resonance follows binding to a sensor surface in real time, without labels.

Test [1] concerns the target T1, human C2 A470S (human, UniProt P06681 21-752).
T1 sequence: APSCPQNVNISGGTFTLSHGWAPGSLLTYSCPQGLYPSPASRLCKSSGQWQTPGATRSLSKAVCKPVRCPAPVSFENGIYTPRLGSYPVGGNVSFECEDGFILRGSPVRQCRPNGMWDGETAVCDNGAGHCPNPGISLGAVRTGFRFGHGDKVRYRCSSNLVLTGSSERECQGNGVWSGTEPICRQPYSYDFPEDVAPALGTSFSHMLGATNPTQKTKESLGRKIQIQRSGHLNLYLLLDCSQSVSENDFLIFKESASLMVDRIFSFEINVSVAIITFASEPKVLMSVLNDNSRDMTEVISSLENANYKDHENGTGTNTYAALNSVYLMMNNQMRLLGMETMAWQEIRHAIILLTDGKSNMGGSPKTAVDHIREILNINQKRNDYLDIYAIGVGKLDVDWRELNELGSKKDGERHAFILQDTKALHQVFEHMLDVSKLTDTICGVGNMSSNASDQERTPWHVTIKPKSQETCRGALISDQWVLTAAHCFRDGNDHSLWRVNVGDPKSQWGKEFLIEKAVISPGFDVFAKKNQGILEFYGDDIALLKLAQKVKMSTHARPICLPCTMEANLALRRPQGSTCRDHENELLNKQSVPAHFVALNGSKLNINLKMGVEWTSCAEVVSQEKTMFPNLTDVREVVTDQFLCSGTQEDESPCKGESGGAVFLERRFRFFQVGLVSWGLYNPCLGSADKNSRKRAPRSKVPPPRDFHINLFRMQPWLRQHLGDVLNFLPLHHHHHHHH

Test [2] has as its target T2, human C2 K329A (human, UniProt P06681 21-752).
T2 sequence: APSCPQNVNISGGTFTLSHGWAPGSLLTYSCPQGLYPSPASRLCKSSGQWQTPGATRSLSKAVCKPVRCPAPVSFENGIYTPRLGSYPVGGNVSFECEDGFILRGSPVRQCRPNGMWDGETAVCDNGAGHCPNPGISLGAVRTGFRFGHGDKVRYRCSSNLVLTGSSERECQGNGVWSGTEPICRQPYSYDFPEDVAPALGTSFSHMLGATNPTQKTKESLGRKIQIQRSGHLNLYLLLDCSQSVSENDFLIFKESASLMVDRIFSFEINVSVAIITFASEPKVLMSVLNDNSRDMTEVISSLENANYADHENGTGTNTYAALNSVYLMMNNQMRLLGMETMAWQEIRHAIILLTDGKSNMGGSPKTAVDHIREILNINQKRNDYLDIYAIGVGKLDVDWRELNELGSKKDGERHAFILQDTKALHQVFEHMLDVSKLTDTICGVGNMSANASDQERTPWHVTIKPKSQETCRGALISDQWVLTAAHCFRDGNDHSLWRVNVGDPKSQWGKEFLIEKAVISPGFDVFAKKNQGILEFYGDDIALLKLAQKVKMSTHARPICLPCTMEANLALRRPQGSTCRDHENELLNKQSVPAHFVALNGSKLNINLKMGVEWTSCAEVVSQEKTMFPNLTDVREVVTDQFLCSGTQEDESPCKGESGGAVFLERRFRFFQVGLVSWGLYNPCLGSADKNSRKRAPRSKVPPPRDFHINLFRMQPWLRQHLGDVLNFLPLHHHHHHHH

Test [3] concerns the target T3, human C2 E476A (human, UniProt P06681 21-752).
T3 sequence: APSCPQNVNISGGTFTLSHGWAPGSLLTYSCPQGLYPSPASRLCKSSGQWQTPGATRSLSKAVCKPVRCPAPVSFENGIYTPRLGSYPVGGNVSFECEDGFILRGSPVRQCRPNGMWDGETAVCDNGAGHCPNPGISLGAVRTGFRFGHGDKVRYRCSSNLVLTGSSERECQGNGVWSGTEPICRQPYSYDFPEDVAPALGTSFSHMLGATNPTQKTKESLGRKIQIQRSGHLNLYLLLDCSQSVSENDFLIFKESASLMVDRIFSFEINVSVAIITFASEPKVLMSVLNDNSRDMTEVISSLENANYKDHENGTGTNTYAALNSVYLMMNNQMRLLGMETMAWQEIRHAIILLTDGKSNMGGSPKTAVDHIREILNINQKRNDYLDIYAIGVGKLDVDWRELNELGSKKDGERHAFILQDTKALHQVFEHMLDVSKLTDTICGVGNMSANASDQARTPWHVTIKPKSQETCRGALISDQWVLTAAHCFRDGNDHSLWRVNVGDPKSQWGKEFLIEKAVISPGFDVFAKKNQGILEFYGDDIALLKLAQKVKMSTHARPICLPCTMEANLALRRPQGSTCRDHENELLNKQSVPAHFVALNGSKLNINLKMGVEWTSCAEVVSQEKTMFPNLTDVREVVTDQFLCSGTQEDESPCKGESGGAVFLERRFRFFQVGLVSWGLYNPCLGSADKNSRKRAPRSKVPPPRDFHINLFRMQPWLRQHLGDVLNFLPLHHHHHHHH

The target of test [4] is T4, human C2 S720A (human, UniProt P06681 21-752).
T4 sequence: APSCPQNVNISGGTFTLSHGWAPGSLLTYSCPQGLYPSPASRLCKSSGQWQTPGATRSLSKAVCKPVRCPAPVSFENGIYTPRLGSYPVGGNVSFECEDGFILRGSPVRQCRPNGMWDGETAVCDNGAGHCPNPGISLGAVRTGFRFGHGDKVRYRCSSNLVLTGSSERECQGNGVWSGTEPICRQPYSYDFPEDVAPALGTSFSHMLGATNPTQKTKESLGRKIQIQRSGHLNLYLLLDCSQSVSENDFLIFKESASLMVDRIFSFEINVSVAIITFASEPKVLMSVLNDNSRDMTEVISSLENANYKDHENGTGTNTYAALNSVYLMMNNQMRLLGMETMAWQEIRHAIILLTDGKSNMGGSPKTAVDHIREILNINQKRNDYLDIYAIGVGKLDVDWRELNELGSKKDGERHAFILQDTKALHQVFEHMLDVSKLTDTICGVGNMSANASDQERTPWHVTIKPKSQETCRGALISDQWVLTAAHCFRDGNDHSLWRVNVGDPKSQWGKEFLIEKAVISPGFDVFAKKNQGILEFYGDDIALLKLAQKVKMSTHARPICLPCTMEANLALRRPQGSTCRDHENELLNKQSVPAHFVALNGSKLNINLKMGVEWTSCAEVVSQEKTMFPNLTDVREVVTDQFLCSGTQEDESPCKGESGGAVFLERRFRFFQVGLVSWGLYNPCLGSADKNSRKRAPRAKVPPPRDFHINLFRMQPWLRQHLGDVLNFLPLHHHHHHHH

Broadly, the Kd is the free concentration of one partner at which half of the binding sites on the other are occupied at equilibrium, for simple one-to-one binding. Higher therefore signals lower affinity.

B1: RF16-226 (antibody, human IgG4 S228P, lambda)
heavy: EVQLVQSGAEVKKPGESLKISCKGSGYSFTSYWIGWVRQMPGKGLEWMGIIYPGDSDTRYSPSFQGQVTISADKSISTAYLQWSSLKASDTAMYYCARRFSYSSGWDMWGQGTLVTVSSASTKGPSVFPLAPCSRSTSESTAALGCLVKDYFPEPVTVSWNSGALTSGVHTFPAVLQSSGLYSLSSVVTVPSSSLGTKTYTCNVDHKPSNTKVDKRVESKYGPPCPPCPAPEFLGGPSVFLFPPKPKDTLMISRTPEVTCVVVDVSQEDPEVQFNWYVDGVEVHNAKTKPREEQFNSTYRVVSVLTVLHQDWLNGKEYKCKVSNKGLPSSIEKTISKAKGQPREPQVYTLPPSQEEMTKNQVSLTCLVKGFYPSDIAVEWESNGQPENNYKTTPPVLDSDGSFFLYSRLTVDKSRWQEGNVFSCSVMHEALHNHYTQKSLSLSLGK
light: SYELTQPPSVSVSPGQTARITCSGDALTSKYVAWYQQKSGLAPLLVIYEDTRRPSGIPAKFSGSSSGSVATLTISGAHGDDEADYYCYSTDASGHQRVFGGGTKLTVLSQPKAAPSVTLFPPSSEELQANKATLVCLISDFYPGAVTVAWKADGSPVKAGVETTKPSKQSNNKYAASSYLSLTPEQWKSHRSYSCQVTHEGSTVEKTVAPTECS
notes: pH-dependent anti-C2 antibody from a phage display library; also called WT
In the case of B1, the Kd stood at 7.8 nM in test [1], 25.6 nM in test [2], 19.6 nM in test [3] and 14.6 nM in test [4].

Values taken from US20220332804A1 (CSL INNOVATION, published 2022).
